Experiment [1] concerns the target cynomolgus IL-23 (cynomolgus). Briefly: cell-based or functional assay.
The target of experiment [2] is T1, recombinant human IL-23 (p19/p40) (human, UniProt Q9NPF7 20-189; P29460 23-328).
T1 sequence (looked up) 1: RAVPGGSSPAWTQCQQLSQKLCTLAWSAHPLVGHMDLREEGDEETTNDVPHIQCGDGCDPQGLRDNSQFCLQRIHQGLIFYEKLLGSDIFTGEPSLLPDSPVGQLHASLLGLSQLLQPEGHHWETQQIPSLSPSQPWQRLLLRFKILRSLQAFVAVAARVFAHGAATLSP
T1 sequence (looked up) 2: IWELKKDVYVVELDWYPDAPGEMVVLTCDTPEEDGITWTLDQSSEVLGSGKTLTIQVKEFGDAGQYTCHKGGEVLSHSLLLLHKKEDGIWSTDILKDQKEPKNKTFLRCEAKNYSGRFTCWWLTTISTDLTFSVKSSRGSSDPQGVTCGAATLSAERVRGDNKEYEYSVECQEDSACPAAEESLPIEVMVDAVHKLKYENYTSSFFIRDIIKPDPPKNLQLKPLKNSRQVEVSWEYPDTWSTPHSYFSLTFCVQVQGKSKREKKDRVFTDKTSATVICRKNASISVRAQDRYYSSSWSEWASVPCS
The experiment in a line: cell-based or functional assay.

Experiment [3] concerns the target T1, recombinant human IL-23 (p19/p40). Briefly: SPR Biacore 3000, hIL-23 on chip, 100 nM only (indicative).
For experiment [4] the target is unchanged. The experiment in a line: SPR Biacore 3000, hIL-23 on chip. On the technique in general: In SPR one partner is held on a chip, and binding of the other changes the refractive index at the surface.
Experiment [5] addresses T2, cynomolgus IL-23 (cynomolgus).
T2 construct: also called cyno IL-23; cIL-23
The experiment in a line: alpha-screen, cIL-23/hIL-23R.

Experiment [6] concerns the target T1, recombinant human IL-23 (p19/p40). Briefly: inhibition ELISA, hIL-23/hIL-23R-Fc. On the technique in general: In an ELISA, binding on a coated surface is turned into a signal by an enzyme label.
The target is the same in experiment [7]. Briefly: alpha-screen, hIL-23/hIL-23R.
The target is the same in experiment [8]. Briefly: alpha-screen, hIL-23/IL-23R. In general terms: Alpha assays give light when donor and acceptor beads are brought close together.
The target of experiment [9] is T2, cynomolgus IL-23. The experiment in a line: alpha-screen, cIL-23/IL-23R.
Experiment [10] addresses T1, recombinant human IL-23 (p19/p40). Briefly: SPR Biacore, hIL-23; kd1 125-155 s.
Experiment [11] has as its target T2, cynomolgus IL-23. The experiment in a line: cell-based or functional assay. The source holds these as a separate data set.
The target of experiment [12] is T1, recombinant human IL-23 (p19/p40). The experiment in a line: cell-based or functional assay. This is another data set of the same source.
Experiment [13] shares this target. Briefly: SPR Biacore, hIL-23; kd2 200-1000 s.
Experiment [14] has as its target T2, cynomolgus IL-23. The experiment in a line: cell-based or functional assay. This is another data set of the same source.
The target of experiment [15] is T1, recombinant human IL-23 (p19/p40). Briefly: cell-based or functional assay. This is another data set of the same source.
Experiment [16] has as its target T3, native human IL-23 (supernatant of SAC-stimulated THP-1 cells) (human, UniProt Q9NPF7 20-189; P29460 23-328).
T3 sequence (looked up) 1: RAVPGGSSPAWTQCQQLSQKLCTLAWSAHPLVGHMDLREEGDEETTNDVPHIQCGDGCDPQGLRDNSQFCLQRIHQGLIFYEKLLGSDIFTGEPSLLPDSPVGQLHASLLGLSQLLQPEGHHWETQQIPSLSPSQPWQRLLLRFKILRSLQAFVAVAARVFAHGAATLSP
T3 sequence (looked up) 2: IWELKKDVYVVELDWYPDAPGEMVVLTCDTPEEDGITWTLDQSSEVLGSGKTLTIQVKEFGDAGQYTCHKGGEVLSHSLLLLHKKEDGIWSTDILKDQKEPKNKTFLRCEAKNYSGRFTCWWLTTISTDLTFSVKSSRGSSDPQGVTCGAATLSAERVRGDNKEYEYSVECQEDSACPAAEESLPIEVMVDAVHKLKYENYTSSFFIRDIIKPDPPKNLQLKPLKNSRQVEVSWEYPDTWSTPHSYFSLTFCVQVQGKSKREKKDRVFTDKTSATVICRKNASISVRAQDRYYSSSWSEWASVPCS
The experiment in a line: cell-based or functional assay.

The target of experiment [17] is T1, recombinant human IL-23 (p19/p40). The experiment in a line: cell-based or functional assay. The source holds these as a separate data set.
Experiment [18] concerns the target T2, cynomolgus IL-23. Briefly: cell-based or functional assay. This is another data set of the same source.
Experiment [19] deals with T1, recombinant human IL-23 (p19/p40). The experiment in a line: cell-based or functional assay. The source holds these as a separate data set.

Broadly, the Kd is the equilibrium constant for the complex coming apart. As a reminder, the kon is the second-order rate constant of association. What is called koff is the rate constant with which the complex falls apart. For orientation: IC50 means the midpoint of a concentration-inhibition curve.

Where “and” joins values, the source holds several entries; their conditions need not be identical. Equal entries are not always repeated. Where two headings read alike, the source gives them in different places.

B1: P23IL119A3 (VHH)
VHH: EVQLVESGGGLVQAGGSLRLSCAASGRIFSLPASGNIFNLLTIAWHRQAPGMQRELVATINSGSRTNYADSVKGRFTISRDNAQKTVYLQMNNLKPEDTAVYYCQTSGSGSPNFWGQGTQVTVSS
notes: p19+ Nanobody
B1: the “IC50, mouse splenocyte assay (mIL-22)” value with cynomolgus IL-23 [1] came out at 37.4 nM; in [2], 25.5 nM. Further, the dissociation constant Kd in experiment [3] was found to be 1.4 nM. Further, in [3], the association rate constant (kon) was 3.7e+06 M⁻¹ s⁻¹. The koff came to 0.0048 s⁻¹ in experiment [4], 0.0041 s⁻¹ in experiment [10] and 0.0014 s⁻¹ in experiment [13]. Further, the IC50 in the experiment with cynomolgus IL-23 [5] was 0.5 nM; in experiment [6] it was 1.76 nM; in experiment [7], 1.21 nM; in experiment [8], 0.76 nM; with cynomolgus IL-23 [9], 0.42 nM. Moreover, the “IC50, splenocyte assay cIL-23” value in the experiment with cynomolgus IL-23 [11] and with cynomolgus IL-23 [14] was 60.5 nM in each case. The “IC50, splenocyte assay hIL-23” value in experiment [12] and in [15] was 16.8 nM throughout.

B2: P23IL119A3-35GS-81G2 (bispecific antibody)
chain: EVQLVESGGGLVQAGGSLRLSCAASGRIFSLPASGNIFNLLTIAWHRQAPGMQRELVATINSGSRTNYADSVKGRFTISRDNAQKTVYLQMNNLKPEDTAVYYCQTSGSGSPNFWGQGTQVTVSSGGGGSGGGGSGGGGSGGGGSGGGGSGGGGSGGGGSEVQLVESGGGLVQPGGSLRLSCIASGLPFSTKSMGWFRQAPGKEREFVARISPGGTSRYYGDFVKGRFAISRDNAKNTTWLQMNSLKAEDTAVYYCASGERSTYIGSNYYRTNEYDYWGTGTQVTVSS
As for B2, the “IC50, splenocyte assay, 19 pM native hIL-23 (Expt 1)” value in experiment [16] is 76 pM and 153 pM. Besides, the “IC50, splenocyte assay, 19 pM hIL-23” value in experiment [17] turned out to be 14 pM; in experiment [19], 12 pM. Besides, in the experiment with cynomolgus IL-23 [18], the “IC50, splenocyte assay, 3.8 pM cIL-23” value amounted to 13 pM.

Source of the values: patent US20110053865A1 (Ablynx, published 2011).
